Test results published in US20180037631A1 (Bristol-Myers Squibb, published 2018).
Residue numbers refer to the chain shown, from its start. “And” between values parts separate entries of the source, which are not always exact repeats. Equal entries are not always repeated. Where two headings read alike, the source gives them in different places. One block for each binder: values may come before it.

Key:
[1] = biological target: T1, Recombinant human EGFR-Fc (aa 1-645 of the extracellular domain of human EGFR fused to human Fc) (human, UniProt P00533 25-645); assay: BIAcore
T1 construct: range 1-645; bought from R&D Systems; also called EGFR645-Fc; EGFR-Fc (HER-1); not shown: human Fc

[2] = biological target: T1, Recombinant human EGFR-Fc (aa 1-645 of …); assay: SPR Biacore
[3] = biological target: T2, EGFR on the surface of human tumour cells (A431, H292) (human, UniProt P00533 25-1210); assay: cell-based or functional assay
[4] = biological target: T3, IGF-IR on human tumour cells (H292, MCF-7, RH41) (human, UniProt P08069 31-1367); assay: cell-based or functional assay
[5] = biological target: T2, EGFR on the surface of human tumour …; assay: cell-based or functional assay; remark: listed apart in the source
[6] = biological target: T2, EGFR on the surface of human tumour …; assay: cell-based or functional assay; remark: listed apart in the source
[7] = biological target: T3, IGF-IR on human tumour cells (H292, …); assay: cell-based or functional assay; remark: listed apart in the source
[8] = biological target: T2, EGFR on the surface of human tumour …
[9] = biological target: T2, EGFR on the surface of human tumour …; assay: cell-based or functional assay; remark: listed apart in the source
[10] = biological target: T1, Recombinant human EGFR-Fc (aa 1-645 of …)
[11] = biological target: T2, EGFR on the surface of human tumour …; assay: cell-based or functional assay; remark: listed apart in the source
[12] = biological target: T2, EGFR on the surface of human tumour …; remark: listed apart in the source
[13] = biological target: T2, EGFR on the surface of human tumour …; remark: listed apart in the source
[14] = biological target: T1, Recombinant human EGFR-Fc (aa 1-645 of …); remark: listed apart in the source
[15] = biological target: T1, Recombinant human EGFR-Fc (aa 1-645 of …); remark: listed apart in the source
[16] = biological target: T1, Recombinant human EGFR-Fc (aa 1-645 of …); remark: listed apart in the source
[17] = biological target: T4, IGF1R-Fc (extracellular domain of human IGF1R aa 1-932 fused to hinge and constant regions of human IgG1) (human, UniProt P08069 31-932); assay: SPR Biacore
T4 construct: range 1-932; made in house by transient transfection, purified on Protein A; also called IGF-IR-Fc; not shown: hinge and constant regions of human IgG1

[18] = biological target: T3, IGF-IR on human tumour cells (H292, …); assay: cell-based or functional assay; remark: listed apart in the source
[19] = biological target: T3, IGF-IR on human tumour cells (H292, …); assay: cell-based or functional assay; remark: listed apart in the source
[20] = biological target: T4, IGF1R-Fc (extracellular domain of human …)
[21] = biological target: T3, IGF-IR on human tumour cells (H292, …); assay: IGF-I competition for IGF-IR binding
[22] = biological target: T3, IGF-IR on human tumour cells (H292, …); assay: [125I]-IGF-I competition on MCF-7 cells
[23] = biological target: T4, IGF1R-Fc (extracellular domain of human …); assay: SPR Biacore, IGF-IR-Fc captured on Protein A
[24] = biological target: mouse EGFR (mouse, UniProt Q01279 25-647, limits assumed); assay: SPR Biacore
[25] = biological target: rat EGFR (rat, UniProt A0ABK0LZB0 35-1214); assay: SPR Biacore
[26] = biological target: monkey EGFR (monkey); assay: SPR Biacore
[27] = biological target: T2, EGFR on the surface of human tumour …; assay: cell-based or functional assay; remark: listed apart in the source
[28] = biological target: T2, EGFR on the surface of human tumour …; assay: cell-based or functional assay; remark: listed apart in the source
[29] = biological target: T1, Recombinant human EGFR-Fc (aa 1-645 of …); remark: listed apart in the source
[30] = biological target: T4, IGF1R-Fc (extracellular domain of human …); remark: listed apart in the source
[31] = biological target: T2, EGFR on the surface of human tumour …; remark: listed apart in the source

Kd [1]: 0.72 nM
Kd [2]: 3.4 nM
Inhibition of H292 Proliferation IC50 [5]: 26 nM
Inhibition of PERK IC50 [5]: 97 nM
Inhibition of pEGFR IC50 [5]: 11 nM
A431 pEGFR IC50 (In-Cell Western) [6]: 15 nM
A431 pERK IC50 (In-Cell Western) [6]: 11 nM
H292 pEGFR IC50 (ELISA) [6]: 22 nM
H292 pIGF-IR IC50 (ELISA) [7]: > 7000 nM
IC50 [8]: 4.75 nM
IC50, EGF-stimulated EGFR phosphorylation, A431 cells, In Cell Western [9]: 14 nM
IC50, EGF-stimulated EGFR phosphorylation, H292 cells, ELISA [9]: 21 nM
% inhibition of EGFR phosphorylation at 100 nM binder, cell-based assay [11]: 87.5%
IC50 [13]: 0.87 nM
koff [14]: 0.000398 s⁻¹
kon [14]: 283000 M⁻¹ s⁻¹
Kd [15]: 3.4 nM
Kd [16]: 1.4 nM
B2: E3 EGFR 10Fn3-based binder, His-tagged monomer (designed binder)
chain: MGVSDVPRDLEVVAATPTSLLISWLPGKLRYQYYRITYGETGGNSPVQEFTVPHDLRTATISGLKPGVDYTITVYAVTNMMHVEYSEYPISINYRTEIDKPSQHHHHHH

Kd [24]: 5.5 nM
Kd [25]: 3.7 nM
Kd [26]: 3.9 nM
H292 colony formation assay IC50 [27]: 6 nM
IC50, EGF-induced EGFR phosphorylation, A431 cells, In Cell Western [28]: 12 nM
IC50, EGF-induced ERK phosphorylation, A431 cells, In Cell Western [28]: 13 nM
IC50, EGF-stimulated EGFR phosphorylation, H292 cells, ELISA [28]: 4 nM
IC50, IGF1-stimulated IGFR phosphorylation, H292 cells, ELISA [19]: 0.2 nM
Kd [29]: 3.63 nM
Kd [30]: 0.46 nM
IC50 [31]: 38.1 nM
B4: I1-GS10-E4 pegylated, His-tagged (designed binder)
chain: MGVSDVPRDLEVVAATPTSLLISWSARLKVARYYRITYGETGGNSPVQEFTVPKNVYTATISGLKPGVDYTITVYAVTRFRDYQPISINYRTEIDKGSGSGSGSGSGSGSGSGSGSVSDVPRDLEVVAATPTSLLISWHERDGSRQYYRITYGETGGNSPVQEFTVPGGVRTATISGLKPGVDYTITVYAVTDYFNPTTHEYIYQTTPISINYRTEIDKPCQHHHHHH
modifications: 40 kDa branched PEG on the Cys of the C-terminal Cys tail

The remaining lines, values behind:

B1: E1 EGFR 10Fn3-based binder, His-tagged monomer (designed binder)
chain: B2 chain with L25V, P26A, K28A, L29E, R30D, R57V, N79D, S86T, Y88H
Kd [1]: 14.6 nM
Kd [2]: 9.92 nM
inhibition of EGF-stimulated EGFR phosphorylation (Y1068), H292 cells, ELISA, IC50 [3]: 7 nM
inhibition of IGF1-stimulated IGF1R phosphorylation (Y1131), H292 cells, ELISA, IC50 [4]: > 3.5 µM
Inhibition of H292 Proliferation IC50 [5]: 18 nM
Inhibition of PERK IC50 [5]: 17 nM
Inhibition of pEGFR IC50 [5]: 18 nM
A431 pEGFR IC50 (In-Cell Western) [6]: 24 nM
A431 pERK IC50 (In-Cell Western) [6]: 13 nM
H292 pEGFR IC50 (ELISA) [6]: 9 nM
H292 pIGF-IR IC50 (ELISA) [7]: > 3400 nM
IC50 [8]: 15.9 nM
IC50, EGF-stimulated EGFR phosphorylation, H292 cells, ELISA [9]: 8 nM
Kd [10]: 9.92 nM and 13.2 nM
koff [10]: 0.00118 s⁻¹ and 0.00189 s⁻¹
kon [10]: 119000 M⁻¹ s⁻¹ and 143000 M⁻¹ s⁻¹
% inhibition of EGFR phosphorylation at 100 nM binder, cell-based assay [11]: 85.9%
IC50 [12]: 14 nM
IC50 [13]: 0.53 nM

B3: I1 IGF-IR 10Fn3-based binder, His-tagged monomer (designed binder)
chain: MGVSDVPRDLEVVAATPTSLLISWSARLKVARYYRITYGETGGNSPVQEFTVPKNVYTATISGLKPGVDYTITVYAVTRFRDYQPISINYRTEIDKPSQHHHHHH
Kd [17]: 0.11 nM
inhibition of EGF-stimulated EGFR phosphorylation (Y1068), H292 cells, ELISA, IC50 [3]: > 6210 nM
inhibition of IGF1-stimulated IGF1R phosphorylation (Y1131), H292 cells, ELISA, IC50 [4]: 0.018 µM
Inhibition of RH41 Proliferation IC50 [18]: 28 nM
Inhibition of pIGFR IC50 [18]: 0.2 nM
H292 pIGF-IR IC50 (ELISA) [7]: 0.2 nM
IC50, IGF1-stimulated IGFR phosphorylation, H292 cells, ELISA [19]: 0.4 nM
Kd [20]: 0.11 nM
koff [20]: 0.000434 s⁻¹
kon [20]: 3.84e+06 M⁻¹ s⁻¹
IC50 [21]: 8 nM
IC50 [22]: 8 nM
Kd [23]: 0.11 nM
